For the data set, the target named is Q8DLC1. Nature of the data set: SAXS; ESRF BM29, 10 °C, 20 mM Tris/HCl pH 7.5, 500 mM NaCl, 20% (v/v) glycerol; dark holoprotein (NADPH, Pchlide) at 0.65 mg ml^-1; monomer content from I(0). Particulars: other: SAXS.

B1: light-dependent protochlorophyllide oxidoreductase of Thermosynechococcus elongatus BP-1 (TeLPOR) (protein)
chain: MSDQPRPTVIITGASSGVGLYATKALANRGWHVIMACRNLEKAEQAAKNLQIPPEAYTILHLDLSSLASVRGFVESFRALNRPLRALVCNAAVYYPLLKEPIYSVDGYEITVATNHLGHFLLINLLLEDLKNSPESDKRLVILGTVTANRKELGGKIPIPAPPDLGNLEGFEKGFKKPIAMINGKPFKSGKAYKDSKLCNMLTARELHRRFHESTGIVFNSLYPGCVADTPLFRHHFPLFQKLFPLFQKKITGGYVSQELAGERVAMVVADPEFRQSGVHWSWGNRQKEGRKAFVQELSAEASDEQKARRLWELSEKLVGLA
As to B1, the “monomer content from I(0), with NADPH and Pchlide” value is “monomer content from I(0): 85.9%”.

These data come from PMC6761149.
